This test addresses Porcine skeletal muscle α-actin, filamentous (porcine) (UniProt P68137).

This note sets out measurements from paper doi:10.1101/2022.05.28.493848.

“MyoB-MLC-B CaMLD complex, purified (from UniProt Q8I465 1-801; Q8III1 1-652)” gave a coupling efficiency (kcat/Kapp) of the actin-activated ATPase of 9.
